The values below come from patent US20250213627A1, “RECOMBINANT MICROORGANISM-BASED METHODS AND COMPOSITIONS FOR TREATMENT OF DISEASE” (Baylor College of Medicine, priority 2021, published 2025).

In the assay the target is other channels. As to the kind of experiment: cell-based or functional assay.

Some results are limits rather than exact numbers.

B1: synthetic ShK-235 (peptide)
peptide: RSCIDTIPKSRCTAFKCKHSIKYRLSFCRKTCGTCA
modifications: here or on the partner: 3 disulfide bonds (oxidatively folded synthetic peptide)
On to B1, for which the selectivity for Kv1.3 over other channels (whole-cell patch-clamp) is > 2200 fold.
